# In EP2216341A1, “Transferrin variants and conjugates” (Novozymes Biopharma UK Limited, priority 2009, dated 2010):
# Target: transferrin receptors on human K562 erythroleukemic cells
# Assay: cell-based or functional assay
Substance,Specific iron uptake Bmax (fmol 55Fe/10^6 cells x 25min),Specific iron uptake Kd (nM transferrin) [nM],Total Iron Uptake Bmax (fmol 55Fe/10^6 cells x 25min)
"Fluorescein conjugated thiotransferrin (S28C, S415A, T613A) (ligand)",2430,154,3290
Human plasma-derived apo-transferrin (Calbiochem 616419) (from UniProt P02787 20-698) (ligand),,,4250
"recombinant thiotransferrin (S28C, S415A, T613A) (ligand)",3020,209,4210
"recombinant transferrin (S415A, T613A) (ligand)",2830,130,4050
"recombinant thiotransferrin (S415C, T613A) (ligand)",2360,203,3690
"Fluorescein conjugated thiotransferrin (S415C, T613A) (ligand)",3250,189,4160
